Results from paper PMC9005348.

Biological target: rsGCaMP.LP294TR.ΔRSET (rsGCaMP1.1)
Test: crystal structure; crystals with domain-swapped dimers; for rsGCaMP1.1 the C2 space group, two molecules in the asymmetric unit; Ca2+-bound protein

## rsGCaMP.LP294TR.ΔRSET (rsGCaMP1.1)
  stoichiometry N: 2
